{
  "source": "patent US6420157B1",
  "about": "“Zymogen activation system” (Ortho-McNeil Pharmaceutical, Inc., priority 1999, dated 2002)",
  "format_in_all_cases": "biochemical",
  "conditions_in_all_cases": "EK-activated protease; substrate 500 uM; pH 7.8; 37° C.; 120 minutes",
  "key": {"[1]": {"experiment": "Chromogenic amidolytic assay, release of pNA from H-DL-Val-Leu-Arg-pNA", "protocol": "(§1) Cells were lysed on ice in 20 mM Tris (pH7.4), 150 mM NaCl, 1% Triton X-100, 1 mM EDTA, 1 mM EGTA, 1 mM PMSF, leupeptin (1 μg/ml), and pepstatin (1 μg/ml). Cell lysates were mixed with anti-FLAG M2 affinity gel (Eastman Kodak Co., New Haven, Conn.) and bound at 4° C. for 3 hours with gentle rotation. The zymogen-bound resin was washed 3 times with TBS buffer (50 mM Tris-HCl, 150 mM NaCl at a final pH of 7.5), and eluted by competition with FLAG peptide (100 μg/ml) in TBS buffer. The eluted zymogen was dialyzed overnight against TBS in Spectra/Por membrane (MWCO: 12,000-14,000) (Spectra Medical Industries, Inc., Huston, Tex.). […] Eluted protein concentration was determined by a Micro BCA Kit (Pierce, Rockford, Ill.) using bovine serum albumin as a standard. Amidolytic activities of the activated protease was monitored by release of para-nitroaniline (pNA) from the synthetic substrates indicated in Table 2. […] Release of pNA was measured over 120 minutes at 37° C. on a micro-plate reader (Molecular Devices, Menlo Park, Calif.) with a 405 nm absorbance filter. The initial reaction rates (Vmax, mOD/min) were determined from plots of absorbance versus time using Softmax (Molecular Devices, Menlo Park, Calif.). […] No measurable chromogenic amidolytic activity was detected with the purified unactivated zymogens. […]"}, "[2]": {"experiment": "Chromogenic amidolytic assay, release of pNA from H-D-Lys(CBO)-Pro-Arg-pNA", "protocol": "as §1"}, "[3]": {"experiment": "Chromogenic amidolytic assay, release of pNA from H-D-Pro-HHT-Arg-pNA", "protocol": "as §1"}, "[4]": {"experiment": "Chromogenic amidolytic assay, release of pNA from H-D-Val-Leu-Lys-pNA", "protocol": "as §1"}},
  "data": [
    {"molecule": "PFEK-MH2-6XHIS: catalytic domain of human protease MH2 in the PFEK1-6XHIS-TAG activation construct (SEQ.ID.NO.:54), EK-activated (protein) MDSKGSSQKSRLLLLLVVSNLLLCQGVVSDYKDDDDVDAAALAAPFDDDDKIVGGYNCLEPHSQPWQAALVMENELFCSGVLVHPQWVLSAAHCFQNSYTIGLGLHSLEADQEPGSQMVEASLSVRHPEYNRPLLANDLMLIKLDESVSESDTIRSISIASQCPTAGNSCLVSGWGLLANGRMPTVLQCVNVSVVSEEVCSKLYDPLYHPSMFCAGGGHDQKDSCNGDSGGPLICNGYLQGLVSFGKAPCGQVGVPGVYTNLCKFTEWIEKTVQASSRHHHHHH", "values": [
      {"measurement": "specific activity, H-DL-Val-Leu-Arg-pNA", "setting": "[1]", "value": "0.058 nmole pNA produced /min/ug protein"},
      {"measurement": "specific activity, H-D-Lys(CBO)-Pro-Arg-pNA", "setting": "[2]", "value": "0.893 nmole pNA produced /min/ug protein"},
      {"measurement": "specific activity, H-D-Pro-HHT-Arg-pNA", "setting": "[3]", "value": "0.052 nmole pNA produced /min/ug protein"},
      {"measurement": "specific activity, H-D-Val-Leu-Lys-pNA", "setting": "[4]", "value": "0.121 nmole pNA produced /min/ug protein"}
    ]}
  ]
}
